B1: human SIRT3-HA (protein)
chain: MAFWGWRAAAALRLWGRVVERVEAGGGVGPFQACGCRLVLGGRDDVSAGLRGSHGARGEPLDPARPLQRPPRPEVPRAFRRQPRAAAPSFFFSSIKGGRRSISFSVGASSVVGSGGSSDKGKLSLQDVAELIRARACQRVVVMVGAGISTPSGIPDFRSPGSGLYSNLQQYDLPYPEAIFELPFFFHNPKPFFTLAKELYPGNYKPNVTHYFLRLLHDKGLLLRLYTQNIDGLERVSGIPASKLVEAHGTFASATCTVCQRPFPGEDIRADVMADRVPRCPVCTGVVKPDIVFFGEPLPQRFLLHVVDFPMADLLLILGTSLEVEPFASLTEAVRSSVPRLLINRDLVGPLAWHPRSRDVAQLGDVVHGVESLVELLGWTEEMRDLVQRETGKLDGPDK
B2: SIRT3 (protein)
chain: B1 chain

Columns and labels:
[1] = molecular target: mouse cytochrome c with a C-terminal Flag tag
mouse cytochrome c with a C-terminal Flag tag, sequence (chain, as listed by the source): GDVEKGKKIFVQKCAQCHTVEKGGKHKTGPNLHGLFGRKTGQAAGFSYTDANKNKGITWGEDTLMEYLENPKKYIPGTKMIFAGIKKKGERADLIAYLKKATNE

Protein | acetylation of residues K40 and K74 of cytochrome c (mass spectrometry) [1] | deacetylation assay (Western blot) (endogenous cytochrome c)
B1 | when hSIRT3 was cotransfected with cytochrome c, acetylation of residues K40 and K74 of cytochrome c was no longer detected | –
B2 | – | SIRT3 can deacetylate endogenous cytochrome c

— patent publication US20150233949
